# Changes are numbered by the printed parent chain.
# T1: cyno IgE c(epsilon)2-c(epsilon)3-c(epsilon)4 Fc fragment with C-terminal (His)10 tag (cynomolgus monkey)
# T1 construct: Made in HEK-EBNA cells with the murine Ig kappa leader; Biotinylated in the Alphascreen; also called cyno IgE Fc; cyno IgE-Fc
# T1 chain: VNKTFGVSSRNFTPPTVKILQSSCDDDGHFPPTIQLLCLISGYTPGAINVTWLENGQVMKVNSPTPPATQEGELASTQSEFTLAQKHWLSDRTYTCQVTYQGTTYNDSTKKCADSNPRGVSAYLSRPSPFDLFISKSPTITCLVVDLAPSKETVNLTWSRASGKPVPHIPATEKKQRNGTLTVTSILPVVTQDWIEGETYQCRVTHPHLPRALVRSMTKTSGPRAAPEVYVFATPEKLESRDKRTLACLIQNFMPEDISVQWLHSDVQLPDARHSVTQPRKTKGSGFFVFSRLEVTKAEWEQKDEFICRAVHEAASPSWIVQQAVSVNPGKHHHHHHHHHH
# B1: Nanobody 39D11 (VHH)
# VHH: EVQLVESGGGLVQPGGSLRLSCAASGFTFGSYDMSWVRQAPGKGPEWVSSIDTGGDITHYADSVKGRFTISRDNANNMLYLQMNSLKPEDTAVYWCATDEDYALGPNEYDYYGQGTQVTVSS
# notes: not shown: C-terminal c-myc tag and His6 tag
# B2: Nanobody 42G5 (VHH)
# VHH: B1 VHH with Q13R, S31N, S63P, N76A, M78T, W95Y
# notes: as for B1
# B3: Nanobody 42D7 (VHH)
# VHH: B1 VHH with S17P
# notes: as for B1
# B4: Nanobody 36G5 (VHH)
# VHH: EVQLVESGGGLVQPGGSLRLSCVASGFTFGSYDMSWVRQAPGKRPEWVSAINSGGGSTYYADSVKGRFTISRDNAKNTLYLQMNSLKPEDTAVYYCATDEDYALGPNEYDYYGQGTQVTVSS
# notes: as for B1
# B5: Nanobody 39D8 (VHH)
# VHH: B1 VHH with E89G
# notes: also called 39D08; not shown: C-terminal c-myc tag and His6 tag
# B6: Nanobody 39B2 (VHH)
# VHH: EVQLVESGGGLVQPGGSLRLSCAASGFTFGSYDMSWVRQAPGKGPEWVSAINSGGGSTYYADSVKGRFTISRDNAKNTLYLQMNSLKPEDTAVYYCSTDLGPWIEGTMEEYEYEYWGQGTQVTVSS
# notes: also called 39B02; not shown: C-terminal c-myc tag and His6 tag
# Biological target: T1, cyno IgE …
# Assay: Alphascreen, competition with HuFc(epsilon)RI(alpha)Fc for cyno IgE Fc
Binder,% inhibition at 250 nM Nanobody [%],IC50 [nM]
B1,93.5,0.119
B2,91.2,0.96
B3,92.7,0.127
B4,88.1,0.584
B5,93.6,0.0742

# Biological target: T2, human IgE (Diatec, Oslo, Norway) (human, UniProt P01854-1 1-428)
# T2 construct: Bought whole IgE; biotinylated in the Alphascreen assays, amine-coupled in SPR; also called HuIgE; HulgE
# T2 sequence (P01854 other isoform, or with tags, fused parts or gaps): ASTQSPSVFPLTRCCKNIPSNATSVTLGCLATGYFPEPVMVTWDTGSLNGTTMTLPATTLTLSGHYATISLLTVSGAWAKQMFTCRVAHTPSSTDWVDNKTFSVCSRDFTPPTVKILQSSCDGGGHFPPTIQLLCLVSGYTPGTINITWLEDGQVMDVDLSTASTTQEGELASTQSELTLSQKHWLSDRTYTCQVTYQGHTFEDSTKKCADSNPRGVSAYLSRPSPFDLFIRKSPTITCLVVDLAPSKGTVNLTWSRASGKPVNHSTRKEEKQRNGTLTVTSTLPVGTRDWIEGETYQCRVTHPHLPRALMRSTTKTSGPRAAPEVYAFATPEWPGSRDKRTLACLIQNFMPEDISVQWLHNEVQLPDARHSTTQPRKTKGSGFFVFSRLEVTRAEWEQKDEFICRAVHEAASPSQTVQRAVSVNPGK
# Assay: ELISA, competition with coated Fc(epsilon)RI for HuIgE
Binder,% inhibition by 500 nM Nanobody [%],IC50 [nM]
B1,99.5,0.511
B2,98.1,8.38
B3,99.6,0.959
B4,98.6,2.96
B5,99.4,0.55
B6,69.3,39.4

# Biological target: T2, human IgE (Diatec, Oslo, Norway)
# Assay: ELISA, competition with coated Fc(epsilon)RII for HuIgE
row,Binder,"fold less potent (against 39D11, 36G5 and Reference Fab) [fold]"
1,B6,10

# Biological target: T2, human IgE (Diatec, Oslo, Norway)
# Assay: cell-based or functional assay
row,Binder,block of degranulation at 500 nM Nanobody [%]
1,B1,> 95
2,B4,> 95
3,B5,> 95
4,B6,25
